Reference: patent US11319368B2, “Treatment of hepatotoxicity with IL-11 antibody” (Singapore Health Services PTE LTD., priority 2019, dated 2022)

Columns and labels:
[1] = tested on: primary human hepatocytes; assay: IL11 stimulation of primary human hepatocytes: ERK, JNK, CASP3, PI staining; assay type: cell-based
Description: PI^+ve cells were quantified with the flow cytometer (Fortessa, BD Biosciences) and analyzed with FlowJo version 7 software (TreeStar).

[2] = tested on: mouse hepatocytes; assay: rhIL11 versus rmIL11 on mouse hepatocytes; assay type: cell-based
Description: Mouse hepatocytes (ABC-TC3928, AcceGen Biotech) were maintained in mouse hepatocyte medium (ABC-TM3928, AcceGen Biotech) supplemented with 1% Penicillin-streptomycin.

[3] = tested on: primary human hepatocytes; assay: IL11 stimulation of primary human hepatocytes with sgp130 or sIL11Rα; assay type: cell-based; settings: IL11 0.625 ng/ml to 20 ng/ml
[4] = tested on: Concanavalin A-induced T-cell-mediated hepatotoxicity; settings: 50-500 μg/kg, IP 2 hours prior to Concanavalin A; cited from earlier work
[5] = tested on: infection colitis; settings: 5 μg/kg, IP; cited from earlier work
[6] = tested on: intestinal inflammation; settings: mucosal sheets 10-10,000 ng/ml; rats 33 μg/kg alternate days 1 or 2 weeks; cited from earlier work
[7] = tested on: heart; settings: 20 μg/kg, IV at the start of reperfusion; cited from earlier work
[8] = tested on: ulcerative mucositis; settings: 50-100 μg/animal/day, SC; cited from earlier work
[9] = tested on: Borrelia burgdorferi-infected mice; settings: 0.1-2 μg/mouse/day, 5 days/week for 3 weeks; cited from earlier work
[10] = tested on: kidney; settings: 100-1000 μg/kg, IP; 10 minutes prior to or 30-60 minutes following IR; cited from earlier work
[11] = tested on: nephrotoxic nephritis; settings: 800-1360 μg/kg, IP 2 hours prior, then once daily for 6 days; cited from earlier work
[12] = tested on: LPS-induced lung injury; settings: 200 mg/kg, IP; cited from earlier work
[13] = tested on: active Crohn's disease; settings: 1 mg, weekly for 12 weeks, SC; 51 patients; cited from earlier work
[14] = tested on: chronic Hepatitis C and late stage liver disease; settings: 5 μg/kg, daily for 12 weeks, SC; 20 patients; cited from earlier work
[15] = tested on: rheumatoid arthritis; settings: up to 15 μg/kg weekly for 12 weeks (SC); cited from earlier work

B1: rhIL11: Recombinant human IL11 (UniProtKB:P20809, Genscript) (protein)
chain: PGPPPGPPRVSPDPRAELDSTVLLTRSLLADTRQLAAQLRDKFPADGDHNLDSLPTLAMSAGALGALQLPGVLTRLRADLLSYLRHVQWLRRAGGSSLKTLEPELGTLQARLDRLLRRLQLLMSRLALPQPPPDPPAPPLAPPSSAWGGIRAAHAILGGLHLTLDWAVRGLLLLKTRL
- hepatocyte cell death, FACS (PI+ve cells) ([1]; 24 h): dose-dependent IL11-induced hepatocyte cell death
- ERK and JNK activation, concurrent with CASP3 cleavage ([1]; time course): late (>6 h) and sustained ERK and JNK activation
- ERK and JNK phosphorylation, CASP3 cleavage ([2]; 10 ng ml^-1, 24 h): had no effect
- mouse hepatocyte cell death (ALT in supernatant) ([2]; 24 h): did not
- hepatocyte cell death (ALT) [3]: dose-dependently (0.625 ng/ml to 20 ng/ml) caused hepatocyte cell death
- liver necrosis [4]: Concanavalin A-induced T-cell-mediated hepatotoxicity reduces
- survival [4]: liver necrosis and enhanced survival in mice.
- infection colitis [5]: IP) ameliorates infection colitis and is cytoprotective in TLR2-
- epithelial transport and inflammation [6]: acts as a modulator of epithelial transport or as an anti-
- adverse cardiac remodeling and apoptosis [7]: prevents adverse cardiac remodeling and apoptosis after
- 5-fluorouracil-induced ulcerative mucositis [8]: Administration of rhIL11 (50-100 μg/animal/day, SC) protects
- arthritis and carditis [9]: weeks) reduces arthritis, but not carditis, in Borrelia burgdorferi-
- renoprotection [10]: The authors conclude that IL11 is renoprotective based on pre-
- ECM deposition [11]: nephrotoxic nephritis and then once daily for 6 days suppresses
- LPS-induced lung injury and lethality [12]: inflammatory activity that protects against LPS-induced lung
- efficacy compared to prednisolone [13]: inferior as compared to prednisolone treatment.
- serum ALT by study end [14]: Lower serum ALT was observed by study end. The most
- patients with mild adverse effect (erythema with/without induration) at the injection site [15]: with/without induration) at the injection site was seen in 60.6% of
- therapeutic benefit [15]: no therapeutic benefit
